Experimental data taken from patent publication US20260174875A1 (Novo Nordisk A/S, priority 2023, published 2026).
Numbered stars: 1 amine (or outer) side, 2 acyl side, 3 side chain; on linkers, the order of the positions; unused ones are H or OH. Square brackets hold non-standard residues; d marks the D form. Side chains are listed from the residue outwards. * marks the point of attachment. C18 diacid = O=C(O)CCCCCCCCCCCCCCCCC(=O)*; C16 diacid = O=C(O)CCCCCCCCCCCCCCC(=O)*; γGlu = O=C(O)[C@H](CCC(=O)[*:2])N[*:1]; Chem. 28 = not defined here; AEEA = NCCOCCOCC(=O)O; Aib = CC(C)(N)C(=O)O

Tests used:
Experiment in all cases: cell-based or functional assay
human GIP receptor [1] = biological target: T1, human GIP receptor (human, UniProt P48546 22-466)
T1 sequence (looked up): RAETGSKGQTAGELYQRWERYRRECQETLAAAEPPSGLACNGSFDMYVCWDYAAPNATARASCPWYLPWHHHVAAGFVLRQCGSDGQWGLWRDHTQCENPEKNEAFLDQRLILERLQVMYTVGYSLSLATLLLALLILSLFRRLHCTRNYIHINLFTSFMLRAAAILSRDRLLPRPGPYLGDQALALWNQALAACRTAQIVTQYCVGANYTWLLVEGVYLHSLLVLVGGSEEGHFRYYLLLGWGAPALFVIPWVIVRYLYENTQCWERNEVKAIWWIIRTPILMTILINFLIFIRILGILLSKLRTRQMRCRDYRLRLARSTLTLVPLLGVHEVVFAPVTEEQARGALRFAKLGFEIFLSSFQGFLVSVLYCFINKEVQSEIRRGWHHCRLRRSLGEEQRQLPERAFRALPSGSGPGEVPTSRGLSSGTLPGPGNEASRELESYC

human GLP-1 receptor [2] = biological target: T2, human GLP-1 receptor (human, UniProt P43220 24-463)
[3] = biological target: T3, human amylin-3(a) receptor (human, UniProt P30988 25-474; O60896 24-148)
T3 sequence (looked up) 1: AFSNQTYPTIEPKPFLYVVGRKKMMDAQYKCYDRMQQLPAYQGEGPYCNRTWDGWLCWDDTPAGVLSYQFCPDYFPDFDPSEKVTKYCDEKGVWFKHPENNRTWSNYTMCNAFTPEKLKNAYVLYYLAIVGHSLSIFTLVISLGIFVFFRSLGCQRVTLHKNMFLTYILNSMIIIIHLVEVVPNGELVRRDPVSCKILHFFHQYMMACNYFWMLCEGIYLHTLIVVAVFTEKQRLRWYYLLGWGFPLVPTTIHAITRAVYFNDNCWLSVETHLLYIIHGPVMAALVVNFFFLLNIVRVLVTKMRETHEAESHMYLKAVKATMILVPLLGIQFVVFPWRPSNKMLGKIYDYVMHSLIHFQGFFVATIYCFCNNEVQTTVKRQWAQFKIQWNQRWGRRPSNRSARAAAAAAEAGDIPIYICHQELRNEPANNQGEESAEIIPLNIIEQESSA
T3 sequence (looked up) 2: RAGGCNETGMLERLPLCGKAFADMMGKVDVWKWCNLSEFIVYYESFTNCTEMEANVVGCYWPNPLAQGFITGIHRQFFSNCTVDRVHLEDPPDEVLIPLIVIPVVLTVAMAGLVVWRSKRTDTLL

human GIP receptor [4] = biological target: T1, human GIP receptor; remark: listed apart in the source
human GLP-1 receptor [5] = biological target: T2, human GLP-1 receptor; remark: listed apart in the source
[6] = biological target: T3, human amylin-3(a) receptor; remark: listed apart in the source

B1: Compound 63 (peptide)
peptide: H[Aib]HGTFTSDYSILLEEQAAREFIEWLLAGGPSK([AEEA-AEEA-γGlu-C18 diacid])GEASQLSTAALGRLSAELHTLATLPRTETGSGSP-NH2
Human GIP receptor [1]
  hGIPR Potency, 1% HSA, EC50 [pM]: 63.2 pM
Human GLP-1 receptor [2]
  hGLP-1R Potency, 1% HSA, EC50 [pM]: 101 pM
[3]
  hAMYR3 Potency, 1% HSA, EC50 [pM]: 70.2 pM
Human GIP receptor [4]
  hGIPR Potency, no HSA, EC50 [pM]: 1.6 pM
Human GLP-1 receptor [5]
  hGLP-1R Potency, no HSA, EC50 [pM]: 4.77 pM
[6]
  hAMYR3 Potency, no HSA, EC50 [pM]: 2.86 pM

B2: Compound 61 (peptide)
peptide: H[Aib]HGTFTSDYSILLEEQAAREFIEWLLAGGPSK([AEEA-AEEA-γGlu-C16 diacid])GAPPPSGGGEASHLSTAQTARLSAELHRLADLPRTETGSGSP-NH2
Human GIP receptor [1]
  hGIPR Potency, 1% HSA, EC50 [pM]: 16 pM
Human GLP-1 receptor [2]
  hGLP-1R Potency, 1% HSA, EC50 [pM]: 14.7 pM
[3]
  hAMYR3 Potency, 1% HSA, EC50 [pM]: 30.8 pM
Human GIP receptor [4]
  hGIPR Potency, no HSA, EC50 [pM]: 1.3 pM
Human GLP-1 receptor [5]
  hGLP-1R Potency, no HSA, EC50 [pM]: 2.79 pM
[6]
  hAMYR3 Potency, no HSA, EC50 [pM]: 2.97 pM

B3: Compound 53 (peptide)
peptide: Y[Aib]EGTFTSDYSILLEEQAAREFIEWLLAGGPSSGAGQAPGQAPGASHLSTAALGRLSAELHK(Chem. 28)LATLPRTETGSGSP-NH2
modifications: reading uncertain
Human GIP receptor [1]
  hGIPR Potency, 1% HSA, EC50 [pM]: 14.6 pM
Human GLP-1 receptor [2]
  hGLP-1R Potency, 1% HSA, EC50 [pM]: 79.2 pM
[3]
  hAMYR3 Potency, 1% HSA, EC50 [pM]: 75.9 pM
Human GIP receptor [4]
  hGIPR Potency, no HSA, EC50 [pM]: 3.25 pM
Human GLP-1 receptor [5]
  hGLP-1R Potency, no HSA, EC50 [pM]: 23.3 pM
[6]
  hAMYR3 Potency, no HSA, EC50 [pM]: 3.22 pM

B4: Compound 56 (peptide)
peptide: Y[Aib]EGTFTSDYSILLEEQAAREFIEWLLAGGPSSGAGQAPGQAPGASHLSTAQTQRLSAELHRLK(Chem. 28)TLPRTETGSGSP-NH2
modifications: reading uncertain
Human GIP receptor [1]
  hGIPR Potency, 1% HSA, EC50 [pM]: 8.48 pM
Human GLP-1 receptor [2]
  hGLP-1R Potency, 1% HSA, EC50 [pM]: 58.4 pM
[3]
  hAMYR3 Potency, 1% HSA, EC50 [pM]: 44.9 pM
Human GIP receptor [4]
  hGIPR Potency, no HSA, EC50 [pM]: 2.65 pM
Human GLP-1 receptor [5]
  hGLP-1R Potency, no HSA, EC50 [pM]: 18.2 pM
[6]
  hAMYR3 Potency, no HSA, EC50 [pM]: 2.36 pM

B5: Compound 58 (peptide)
peptide: Y[Aib]EGTFTSDYSILLEEQAAREFIEWLLAGGPSSGAGQAPGQAPLASHLSTAQTQRLSAELHK(Chem. 28)LATLPRTETGSGSP-NH2
modifications: reading uncertain
Human GIP receptor [1]
  hGIPR Potency, 1% HSA, EC50 [pM]: 7.58 pM
Human GLP-1 receptor [2]
  hGLP-1R Potency, 1% HSA, EC50 [pM]: 25.6 pM
[3]
  hAMYR3 Potency, 1% HSA, EC50 [pM]: 134 pM
Human GIP receptor [4]
  hGIPR Potency, no HSA, EC50 [pM]: 1.88 pM
Human GLP-1 receptor [5]
  hGLP-1R Potency, no HSA, EC50 [pM]: 12.7 pM
[6]
  hAMYR3 Potency, no HSA, EC50 [pM]: 2.91 pM

B6: Compound 49 (peptide)
peptide: Y[Aib]EGTFTSDYSILLEEQAAREFIEWLLAGGPSSGAPPPSGGGEASHLSTAQTQRLSAELHK(Chem. 28)LATLPRTETGSGSP-NH2
modifications: reading uncertain
Human GIP receptor [1]
  hGIPR Potency, 1% HSA, EC50 [pM]: 16.7 pM
Human GLP-1 receptor [2]
  hGLP-1R Potency, 1% HSA, EC50 [pM]: 110 pM
[3]
  hAMYR3 Potency, 1% HSA, EC50 [pM]: 106 pM
Human GIP receptor [4]
  hGIPR Potency, no HSA, EC50 [pM]: 4.36 pM
Human GLP-1 receptor [5]
  hGLP-1R Potency, no HSA, EC50 [pM]: 33.3 pM
[6]
  hAMYR3 Potency, no HSA, EC50 [pM]: 1.85 pM

B7: Compound 67 (peptide)
peptide: Y[Aib]EGTFTSDYSILLEEQAAREFIEWLLAGGPSRGEASELSTAALGRLSAELHK([AEEA-AEEA-γGlu-C18 diacid])LATLPRTETGSGSP-NH2
Human GIP receptor [1]
  hGIPR Potency, 1% HSA, EC50 [pM]: 37 pM
Human GLP-1 receptor [2]
  hGLP-1R Potency, 1% HSA, EC50 [pM]: 105 pM
[3]
  hAMYR3 Potency, 1% HSA, EC50 [pM]: 190 pM
Human GIP receptor [4]
  hGIPR Potency, no HSA, EC50 [pM]: 4.28 pM
Human GLP-1 receptor [5]
  hGLP-1R Potency, no HSA, EC50 [pM]: 15.4 pM
[6]
  hAMYR3 Potency, no HSA, EC50 [pM]: 3.66 pM

B8: Compound 52 (peptide)
peptide: Y[Aib]EGTFTSDYSILLEEQAAREFIEWLLAGGPSSGAGQAPGQAPGASHLSTAQTQRLSAELHK(Chem. 28)LATLPRTETGSGSP-NH2
modifications: reading uncertain
Human GIP receptor [1]
  hGIPR Potency, 1% HSA, EC50 [pM]: 6.79 pM
Human GLP-1 receptor [2]
  hGLP-1R Potency, 1% HSA, EC50 [pM]: 26.9 pM
[3]
  hAMYR3 Potency, 1% HSA, EC50 [pM]: 119 pM
Human GIP receptor [4]
  hGIPR Potency, no HSA, EC50 [pM]: 1.83 pM
Human GLP-1 receptor [5]
  hGLP-1R Potency, no HSA, EC50 [pM]: 11 pM
[6]
  hAMYR3 Potency, no HSA, EC50 [pM]: 2.85 pM

B9: Compound 50 (peptide)
peptide: Y[Aib]EGTFTSDYSILLEEQAAREFIEWLLAGGPSSGEASHLSTAQTQRLSAELHK(Chem. 28)LATLPRTETGSGSP-NH2
modifications: reading uncertain
Human GIP receptor [1]
  hGIPR Potency, 1% HSA, EC50 [pM]: 15.1 pM
Human GLP-1 receptor [2]
  hGLP-1R Potency, 1% HSA, EC50 [pM]: 66.3 pM
[3]
  hAMYR3 Potency, 1% HSA, EC50 [pM]: 185 pM
Human GIP receptor [4]
  hGIPR Potency, no HSA, EC50 [pM]: 2.36 pM
Human GLP-1 receptor [5]
  hGLP-1R Potency, no HSA, EC50 [pM]: 16.2 pM
[6]
  hAMYR3 Potency, no HSA, EC50 [pM]: 3.2 pM
